Results reported in patent US8357523B2, “Beta-glucosidase variant enzymes and related polynucleotides” (Codexis, Inc., priority 2009, dated 2013).

Experiments:
[1] = Saccharification of microcrystalline cellulose by Trichoderma reesei whole cellulase supplemented with β-glucosidase; format: biochemical; conditions: 1 g/L TRWC alone or 25% of TRWC substituted with the β-glucosidase; 200 g/L Avicel, 100 g/L xylose, pH5.5, 55° C., 48 hours
Source text: FIG. 12 illustrates the impact of supplementing a commercially available Trichoderma reesei whole cellulose (“TRWC”) mixture with a CelA variant of the present invention. Compositions containing TRWC were supplemented with β-glucosdiases CelA Variant No. 264 (“Cel var1”), CelA Variant No. 366 (“Cel var2”), and a commercially available Aspergillus niger β-glucosidase (“ANBG”) in a ratio of 3:1 TRWC to β-glucosidase. The effectiveness of each composition at hydrolyzing microcrystalline cellulose was evaluated as described in Example 15. A plot of glucose and cellobiose concentration (g/L) vs. cellulase composition is depicted. The control composition was TRWC with no added β-glucosidase.
The impact of adding a CelA variant of the present invention to commercially available cellulose mixtures and microcrystalline cellulose, Avicel™, was evaluated. In the test reactions, 1 g/L Trichoderma reesei whole cellulose (“TRWC”, Sigma catalog #C85456-10KU (ATCC 26921)) was used to convert 200 g/L of the microcrystalline cellulose Avicel™ (200 mM Sodium acetate; 100 g/L xylose, pH5.5 and 55° C.). The amount of glucose was measured after 48 hours of reaction. As a comparison, 25% of the TRWC was replaced with a β-glucosidase: Variant No. 264 (“Cel var1”), Variant No. 366 (“Cel var2”), or with the commercially available cellobiase, Aspergillus niger beta-glucosidase (“ANBG”, Sigma catalog #49291-1G). […]

[2] = High throughput cellobiose assay: fold improvement in cellobiase activity of CelA variants over a control enzyme (Tables 2A-2D, 3, 5, 6, 7); format: biochemical; conditions: assay of Example 7

B1: Variant No. 264 (protein)
chain: SAAIAQEGAAPAAMLHPEKWPRPATQRLIDPAVEKRVDALLKQLSVEEKVGQVIQGDIGTITPEDLRKYPLGSILAGGDSGPNGDDRAPPKEWLDLADAFYRVSLEKRPGHTPIPVLFGIDAVHGHGNIGSATIFPHNIALGMTRDPELLRRIGEVTAEEMAATGIDWTFAPALSVVRDDRWGRTYEGFSEDPEIVASYSAAIVEGVQGKYGSKDFMAPGRAVACAKHFLADGGTDQGRDQGDARISEDELIRIHNAGYPPAIDAGVLTVMASFSSWQGIKHHGHKQLLTDVLKGQMGFNGFIVGDWNAHDQVPGCTKFNCPTSLIAGLDMYMAADSWKQLYENTLAQVKDGTIPMARLDDAVRRILRVKVLAGLFEKPAPKDRPGLPGLETLGSPEHRAVGREAVRKSLVLLKNDKGTLPLSPKARVLVAGDGADNIGKQSGGWTISWQGTGNRNDEFPGATSILGGIRDAVADAGGSVEFDVAGQYKTKPDVAIVVFGEEPYAEFRGDVETLEYQPDQKQDLTLLKKLKDQGIPVVAVFLSGRPMWVNPELNASDAFVAAWLPGTEGGGVADVLFTDKAGKVQHDFAGKLSYSWPRTAAQTTVNRGDADYNPLFAYGYGLTYKDKSKVGTLPEESGVPAEARQN
cellobiose and glucose combined yielded in saccharification reaction [1]: comparable results
activity (e.g., thermoactivity) over the wildtype A. irakense β-glucosidase [2]: improved activity
